The values that follow come from patent US7494767B2, “Assay for TSG101 as inhibitors of HIV production” (priority 2001, dated 2009).

In test [1] the target is T1, Tsg101 capture by Pr55^Gag (Homo sapiens, UniProt Q99816).
T1 construct: anneals at the position corresponding to amino acid 10 in the protein, and 3′ primer no; 30, which anneals to the C-terminus; made in house; host or cells: Tsg101: rabbit reticulocyte lysate (TNT T7 system); Pr55Gag: E. coli BL21-DE3
T1 sequence (Q99816 11-390): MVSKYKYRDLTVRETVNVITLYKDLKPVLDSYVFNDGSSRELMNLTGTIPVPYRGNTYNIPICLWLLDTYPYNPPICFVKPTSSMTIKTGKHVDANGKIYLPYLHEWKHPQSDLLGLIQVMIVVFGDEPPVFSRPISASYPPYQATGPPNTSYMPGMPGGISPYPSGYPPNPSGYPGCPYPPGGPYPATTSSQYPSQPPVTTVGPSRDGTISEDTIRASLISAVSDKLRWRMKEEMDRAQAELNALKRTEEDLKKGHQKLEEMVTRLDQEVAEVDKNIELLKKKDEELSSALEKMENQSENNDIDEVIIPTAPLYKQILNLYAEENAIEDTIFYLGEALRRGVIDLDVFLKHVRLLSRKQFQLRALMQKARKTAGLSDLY
In words: Immune capture competition assay: Tsg101 capture by Pr55^Gag on antibody-coated Protein A beads. In kind it is binding, mouse or human. The conditions noted are these: 5-fold molar excess of peptide. How it is done:
Protein detection. Proteins were separated by electrophoresis through a 12.5% SDS polyacrylamide gel. For detection of radiolabeled Tsg101 after electrophoresis, gels were fixed, incubated for 30 min in EN^3HANCE (DuPont NEN) autoradiography enhancer for gel fluorography and dried. Radioactive bands were visualized using imaging film (BioMax, Kodak). Gels with non-radioactive samples were transferred to nitrocellulose and analyzed by Western blotting. The following antibodies, as specified in the text, were used: anti-capsid (CA)1 and -CA2 (rabbit polyclonal antibodies raised against native and denatured forms of the CA protein, respectively; Ebbets-Reed, D., 1996, in Molecular Microbiology, State University of New York at Stony Brook, Stony Brook, N.Y., pp. 209; Ehrlich, L. S., Agresta, B. E. & Carter, C. A., 1992, J. Virol. 66,4874-4883); anti-CA3 (mouse monoclonal antibody, NEN-DuPont); anti-p6 (rabbit polyclonal against the C-terminal 16 amino acids, S. Campbell, NCI-FCRDC); anti-nucleocapsid (NC, goat polyclonal, A. Rein, NCI-FCRDC); anti-T7 (Novagen); anti-Tsg1011 (monoclonal, Santa Cruz); antiTsg1012 (rabbit polyclonal, obtained from S. Cohen, Stanford U.). […]
Tsg101 binds to Pr55^Gag in vitro. […] The protein was detected consistently as a doublet, perhaps due to internal initiation at Met10. The protein was also sometimes detected as a doublet in cytoplasmic extracts. […]

In a further test the test system is HIV-1 particles. Nature of the test: Release of HIV-1 virus-like particles from transfected COS-1 cells (Western blot of particles, anti-CA). Format: cell-based. The conditions noted are these: 5 μM pa in the absence of pIND-h-Tsg101-FLAG. On the technique in general: A western blot detects proteins with antibodies after separation by electrophoresis.

LIAPP: the “reduction in Tsg101 capture by Pr55^Gag” value in test [1] is on record as “no change was detected”.
As to `CC(C)CC[C@@H](O)[C@](C)(O)[C@H]1CC[C@@]2(O)C3=CC(=O)[C@@H]4C[C@@H](O)[C@@H](O)C[C@]4(C)[C@H]3CC[C@]12C` [pa, reference compound], in the test on HIV-1 particles, the “inhibitory effect on virus release” value is reported as “no inhibitory effect”.
